The subject of series [1] is NC(=O)c1ccc[n+]([C@@H]2O[C@H](COP(=O)([O-])OP(=O)(O)OC[C@H]3O[C@@H](n4cnc5c(N)ncnc54)[C@H](O)[C@@H]3O)[C@@H](O)[C@H]2O)c1. In words: purified protein. The conditions noted are these: IMP NAD+ site; substrate inhibition attributed to an E-XMP*•NAD+ complex; varied: cofactor.
The target in series [2] is T1, CgImd1 (IMP dehydrogenase, CgIMPDH, VGIV) (Cryptococcus bacillisporus, UniProt E3P6S3).
T1 construct: gene IMD1; recombinant CgImd1 expressed in E. coli
In words: NADH production at […] nm, tight-binding inhibition fits. The format is biochemical.

Series [3] concerns the target T2, CnImd1 (IMP dehydrogenase, CnIMPDH, VNI) (Cryptococcus neoformans, UniProt J9VET5).
T2 construct: gene CNAG_00441; recombinant, 544 residues; 395 residues modelled per monomer
Briefly: crystal structure with IMP and MPA; steady-state kinetics (tight-binding uncompetitive vs NAD+). It is filed as biochemical.

T2 sequence (J9VET5 entry or part of it): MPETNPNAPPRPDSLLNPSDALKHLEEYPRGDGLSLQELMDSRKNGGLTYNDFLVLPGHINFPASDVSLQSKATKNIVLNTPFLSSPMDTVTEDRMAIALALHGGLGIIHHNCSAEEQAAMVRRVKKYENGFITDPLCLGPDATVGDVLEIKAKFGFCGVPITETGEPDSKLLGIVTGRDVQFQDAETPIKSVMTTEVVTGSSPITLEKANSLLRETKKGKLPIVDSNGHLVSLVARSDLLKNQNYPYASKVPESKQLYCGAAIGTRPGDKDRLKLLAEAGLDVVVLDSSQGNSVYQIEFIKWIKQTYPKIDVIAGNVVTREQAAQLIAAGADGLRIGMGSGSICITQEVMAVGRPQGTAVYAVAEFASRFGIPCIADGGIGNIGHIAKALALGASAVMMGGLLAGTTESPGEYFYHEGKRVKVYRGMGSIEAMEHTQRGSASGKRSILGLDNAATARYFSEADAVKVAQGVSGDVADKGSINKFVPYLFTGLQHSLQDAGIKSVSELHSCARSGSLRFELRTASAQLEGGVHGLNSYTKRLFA
T1 sequence (E3P6S3 entry or part of it): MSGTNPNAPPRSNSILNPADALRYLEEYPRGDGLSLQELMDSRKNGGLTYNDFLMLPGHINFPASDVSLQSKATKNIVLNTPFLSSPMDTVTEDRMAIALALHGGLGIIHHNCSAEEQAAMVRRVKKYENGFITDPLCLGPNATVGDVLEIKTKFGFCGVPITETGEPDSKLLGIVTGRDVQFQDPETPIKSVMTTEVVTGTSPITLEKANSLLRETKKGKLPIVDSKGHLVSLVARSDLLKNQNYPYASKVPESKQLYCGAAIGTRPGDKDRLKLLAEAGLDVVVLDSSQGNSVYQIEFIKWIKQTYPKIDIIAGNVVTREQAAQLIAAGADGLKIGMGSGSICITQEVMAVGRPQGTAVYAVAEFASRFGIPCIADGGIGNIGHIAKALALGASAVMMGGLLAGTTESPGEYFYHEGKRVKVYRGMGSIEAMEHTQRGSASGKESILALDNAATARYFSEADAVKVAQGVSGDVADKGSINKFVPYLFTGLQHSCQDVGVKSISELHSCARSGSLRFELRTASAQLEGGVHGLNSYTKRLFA

As usually defined, the Km is the concentration of substrate that gives half-maximal velocity. Take “CgImd1 (IMP dehydrogenase, CgIMPDH, VGIV) (Cryptococcus bacillisporus)”: in series [1], the Km stood at 532 ± 65 µM.
The Ki is a dissociation constant, usually derived from enzyme kinetics or from competition with a known ligand. A low value points to tighter binding. `COc1c(C)c2c(c(O)c1C/C=C(\C)CCC(=O)O)C(=O)OC2` [MPA, mycophenolic acid]: the Ki in series [2] was determined as 96 ± 5 nM; in series [3], 240 ± 18 nM.
“CnImd1 (IMP dehydrogenase, CnIMPDH, VNI) (Cryptococcus neoformans H99)”: in series [1], the Km was found to be 634 ± 97 µM.

(Values after publication PMC3469657, “De novo GTP Biosynthesis Is Critical for Virulence of the Fungal Pathogen Cryptococcus neoformans” (PLoS Pathogens, 2012).)
